Assay results published in US20250051476A1 (ABDERA THERAPEUTICS, published 2025).
Where a chain is given by its changes, count along the chain named.

T1: DLL3 on cells (SHP-77, NCI-H82, HEK-DLL3, membrane proteome array cells) (human, UniProt Q9NYJ7 27-618)
T1 construct: whole, on cells; also called hDLL3
T1 sequence (looked up): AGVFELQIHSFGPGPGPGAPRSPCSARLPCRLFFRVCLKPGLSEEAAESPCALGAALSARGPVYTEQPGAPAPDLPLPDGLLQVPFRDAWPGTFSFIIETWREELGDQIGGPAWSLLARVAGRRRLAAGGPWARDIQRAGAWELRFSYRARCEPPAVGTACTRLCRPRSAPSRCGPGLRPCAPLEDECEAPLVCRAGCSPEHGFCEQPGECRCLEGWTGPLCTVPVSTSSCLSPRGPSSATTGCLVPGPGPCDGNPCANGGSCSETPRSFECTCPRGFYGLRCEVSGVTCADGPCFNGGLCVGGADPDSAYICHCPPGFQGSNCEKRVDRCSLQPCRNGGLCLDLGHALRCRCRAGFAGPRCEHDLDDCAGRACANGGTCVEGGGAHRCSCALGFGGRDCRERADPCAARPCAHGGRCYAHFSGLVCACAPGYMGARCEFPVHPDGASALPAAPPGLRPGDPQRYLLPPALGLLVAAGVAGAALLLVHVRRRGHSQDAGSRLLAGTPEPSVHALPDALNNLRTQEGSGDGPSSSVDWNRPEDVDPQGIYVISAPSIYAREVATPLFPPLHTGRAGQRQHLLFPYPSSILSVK

B1: 107_zu2 Conjugate (Fc fusion)
chain: QVQLVESGGGLVQPGGSLRLSCAASDRTFSSYAVGWFRQAPGQGLEFVAAISWNGGRTLYTDSVTGRFTISRDNSKNTLYLQMNSLRAEDTAVYYCAARPAAPTRRLEYDYWGQGTLVTVSSEPKSSDKTHTCPPCPAPEAEGAPSVFLFPPKPKDTLMISRTPEVTCVVVDVSHEDPEVKFNWYVDGVEVHNAKTKPREEQYNSTYRVVSVLTVLHQDWLNGKEYKCKVSNKALPSSIEKTISKAKGQPREPQVYTLPPSREEMTKNQVSLTCLVKGFYPSDIAVEWESNGQPENNYKTTPPVLDSDGSFFLYSKLTVDKSRWQQGNVFSCSVMHEALHNQYTQKSLSLSPG
modifications: conjugated to p-SCN-Bn-DOTA, chelator-antibody ratio of 3-5 (lysine-based conjugation)
B2: 126 (Fc fusion)
chain: QVQLVESGGGMVQPGGSLRLSCAASGITFSMYSMSWYRQPPGKQRELVAATTTFGSTNYADSVKGRFTISRDNAKNTVYLQMNSLKPEDTAVYLCNARFTSEEYWGQGTQVTVSSEPKSSDKTHTCPPCPAPEAEGAPSVFLFPPKPKDTLMISRTPEVTCVVVDVSHEDPEVKFNWYVDGVEVHNAKTKPREEQYNSTYRVVSVLTVLHQDWLNGKEYKCKVSNKALPSSIEKTISKAKGQPREPQVYTLPPSREEMTKNQVSLTCLVKGFYPSDIAVEWESNGQPENNYKTTPPVLDSDGSFFLYSKLTVDKSRWQQGNVFSCSVMHEALHNQYTQKSLSLSPG
notes: Parental camelid VHH-Fc
B3: 126 Conjugate (Fc fusion)
chain: B2 chain
modifications: conjugated to p-SCN-Bn-DOTA, chelator-antibody ratio of 3-5 (lysine-based conjugation)
B4: 126_zu1 Conjugate (Fc fusion)
chain: QVQLVESGGGLVQPGGSLRLSCAASGITFSMYSMSWFRQAPGQGLEAVAATTTFGSTNYADSVKGRFTISRDNSKNTLYLQMNSLRAEDTAVYYCAARFTSEEYWGQGTLVTVSSEPKSSDKTHTCPPCPAPEAEGAPSVFLFPPKPKDTLMISRTPEVTCVVVDVSHEDPEVKFNWYVDGVEVHNAKTKPREEQYNSTYRVVSVLTVLHQDWLNGKEYKCKVSNKALPSSIEKTISKAKGQPREPQVYTLPPSREEMTKNQVSLTCLVKGFYPSDIAVEWESNGQPENNYKTTPPVLDSDGSFFLYSKLTVDKSRWQQGNVFSCSVMHEALHNQYTQKSLSLSPG
modifications: conjugated to p-SCN-Bn-DOTA, chelator-antibody ratio of 3-5 (lysine-based conjugation)
B5: 126_zu2 Conjugate (Fc fusion)
chain: B4 chain with A47L
modifications: conjugated to p-SCN-Bn-DOTA, chelator-antibody ratio of 3-5 (lysine-based conjugation)
B6: 186_zu2 conjugated to p-SCN-Bn-DOTA (Fc fusion)
chain: QVQLVESGGGLVQPGGSLRLSCAASGFDFSTYTVNWFRQAPGQGLEKVARISSTGTTTNYANSAKGRFTISRDNSKNTLYLQMNSLRAEDTAVYYCAAERFDSNYWGQGTLVTVSSEPKSSDKTHTCPPCPAPEAEGAPSVFLFPPKPKDTLMISRTPEVTCVVVDVSHEDPEVKFNWYVDGVEVHNAKTKPREEQYNSTYRVVSVLTVLHQDWLNGKEYKCKVSNKALPSSIEKTISKAKGQPREPQVYTLPPSREEMTKNQVSLTCLVKGFYPSDIAVEWESNGQPENNYKTTPPVLDSDGSFFLYSKLTVDKSRWQQGNVFSCSVMHEALHNQYTQKSLSLSPG
modifications: conjugated to p-SCN-Bn-DOTA, chelator-antibody ratio of 3-5; lysine in FW2 (printed position 52)
notes: Humanized VHHFc conjugate
B7: 186_zu1 conjugated to p-SCN-Bn-DOTA (Fc fusion)
chain: B6 chain with K47A
modifications: conjugated to p-SCN-Bn-DOTA, chelator-antibody ratio of 3-5
notes: Humanized VHHFc conjugate

Tests used:
[1] = biological target: T1, DLL3 on cells (SHP-77, NCI-H82, …); test: flow cytometry on SHP-77 cells, Geomeans RL1-H; p-SCN-Bn-DOTA conjugate against the unconjugated VHHFc
[2] = biological target: T1, DLL3 on cells (SHP-77, NCI-H82, …); test: flow cytometry on SHP-77 cells, Geomeans RL1-H
[3] = biological target: T1, DLL3 on cells (SHP-77, NCI-H82, …); test: flow cytometry on SHP-77 cells, Geomeans RL1-H; remark: listed apart in the source

| Binder | EC50 (read off the curve) [1] | other results |
| --- | --- | --- |
| B1 | ~0.1 nM |  |
| B2 |  | EC50 (read off the curve) [2]: ~0.1 nM; EC50 (read off the curve) [3]: ~0.1 nM |
| B3 | ~0.2 nM |  |
| B4 |  | binding result [1]: binds |
| B5 | ~0.1 nM |  |
| B6 |  | binding result [1]: binds |
| B7 | ~0.3 nM |  |
